Test results published in paper doi:10.1101/070185 (bioRxiv, 2016).

T1: ETS1Δ335 (UniProt P14921 335-441)
T1 sequence: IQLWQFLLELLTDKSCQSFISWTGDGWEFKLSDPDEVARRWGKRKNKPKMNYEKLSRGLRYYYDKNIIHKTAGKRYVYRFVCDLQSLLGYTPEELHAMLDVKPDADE

T2: ETS1Δ335 R394A/Y395A (UniProt P14921 335-441, R394A;Y395A)
T2 sequence: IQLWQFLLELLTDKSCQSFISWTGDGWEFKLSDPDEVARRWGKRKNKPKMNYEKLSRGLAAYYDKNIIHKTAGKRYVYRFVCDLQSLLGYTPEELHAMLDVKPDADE

T3: ETS1Δ335 L337A (UniProt P14921 335-441, L337A)
T3 sequence: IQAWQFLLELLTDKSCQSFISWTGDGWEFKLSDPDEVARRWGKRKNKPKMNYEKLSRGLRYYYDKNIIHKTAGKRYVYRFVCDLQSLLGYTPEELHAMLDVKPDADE


Assays:
ETS1Δ335 = target: T1, ETS1Δ335; assay: EMSA
ETS1Δ335 R394A/Y395A = target: T2, ETS1Δ335 R394A/Y395A; assay: EMSA
ETS1Δ335 L337A = target: T3, ETS1Δ335 L337A; assay: EMSA
cross-linking = target: the molecule itself; assay: cross-linking

Binder	Kd (ETS1Δ335) [nM]	Kd (ETS1Δ335 R394A/Y395A) [nM]	stoichiometry N (cross-linking)	other results
MMP3 M2 (dsDNA) DNA 1: ACAGGAAGCACTTTTTGG DNA 2: CCAAAAAGTGCTTCCTGT	6.37 ± 0.92	7.33 ± 0.55		
p53 (dsDNA) DNA 1: TTAGGAAGGCTTTCCGTA DNA 2: TACGGAAAGCCTTCCTAA				binding result (ETS1Δ335): no binding; binding result (ETS1Δ335 R394A/Y395A): no binding
MMP3 WT (dsDNA) DNA 1: ACAGGAAGCACTTCCTGG DNA 2: CCAGGAAGTGCTTCCTGT	1.2 ± 0.2	16.1 ± 1.3		binding result (ETS1Δ335 L337A): no binding
ETS1Δ335 R378C (domain or fragment, UniProt P14921 335-441, looked up) IQLWQFLLELLTDKSCQSFISWTGDGWEFKLSDPDEVARRWGKCKNKPKMNYEKLSRGLRYYYDKNIIHKTAGKRYVYRFVCDLQSLLGYTPEELHAMLDVKPDADE			2	
ETS1Δ335 L337A R378C (domain or fragment, UniProt P14921 335-441, looked up) IQAWQFLLELLTDKSCQSFISWTGDGWEFKLSDPDEVARRWGKCKNKPKMNYEKLSRGLRYYYDKNIIHKTAGKRYVYRFVCDLQSLLGYTPEELHAMLDVKPDADE			2	
ETS1Δ335 R378C/R394A/Y395A (domain or fragment, UniProt P14921 335-441, looked up) IQLWQFLLELLTDKSCQSFISWTGDGWEFKLSDPDEVARRWGKCKNKPKMNYEKLSRGLAAYYDKNIIHKTAGKRYVYRFVCDLQSLLGYTPEELHAMLDVKPDADE			2	
MMP3 M1 (dsDNA) DNA 1: ACAAAAAGCACTTCCTGG DNA 2: CCAGGAAGTGCTTTTTGT	13.5 ± 1.9	105 ± 5.2		
